In FireProtDB (doi:10.1021/bi9815243):

B1: Guanyl-specific ribonuclease T1, P00651 (parent)
chain: MMYSKLLTLTTLLLPTALALPSLVERACDYTCGSNCYSSSDVSTAQAAGYQLHEDGETVGSNSYPHKYNNYEGFDFSVSSPYYEWPILSSGDVYSGGSPGADRVVFNENNQLAGVITHTGASGNNFVECT
B2: Guanyl-specific ribonuclease Sa, P05798 (parent)
chain: DVSGTVCLSALPPEATDTLNLIASDGPFPYSQDGVVFQNRESVLPTQSYGYYHEYTVITPGARTRGTRRIITGEATQEDYYTGDHYATFSLIDQTC

Variants of: B1
Conditions: Aspergillus oryzae (strain ATCC 42149 / RIB 40); pH 2.7; 25 °C; Urea; CD; glycine 30 mM; reversible: yes (>95%); structure 1RN1; whole UniProt chain shown

Row | Variant | ddG of mutation (higher = less stable) | denaturant m value | denaturant midpoint (higher = more stable) | unfolding free energy
1 | N70D | 0.5 kcal/mol | 1.66 kcal/mol/M | 3.45 M | 5.71 kcal/mol

Same assay, conditions: Aspergillus oryzae (strain ATCC 42149 / RIB 40); pH 2.7; 25 °C; Urea; Fluorescence; glycine 30 mM; transition: 2; reversible: Yes; structure 1RN1; whole UniProt chain shown

Row | Variant | denaturant m value | denaturant midpoint (higher = more stable) | unfolding free energy
2 | N70D | 1.66 kcal/mol/M | 3.45 M | 5.71 kcal/mol

Same assay, conditions: Aspergillus oryzae (strain ATCC 42149 / RIB 40); pH 7; 25 °C; Urea; CD; MOPS 30 mM; reversible: yes (>95%); structure 1RN1; whole UniProt chain shown

Row | Variant | ddG of mutation (higher = less stable) | denaturant m value | denaturant midpoint (higher = more stable) | unfolding free energy
3 | N70D | 2 kcal/mol | 1.25 kcal/mol/M | 3.54 M | 4.43 kcal/mol
4 | N70S | 1.9 kcal/mol | 1.22 kcal/mol/M | 3.6 M | 4.39 kcal/mol
5 | N70A | 2 kcal/mol | 1.17 kcal/mol/M | 3.51 M | 4.12 kcal/mol

Same assay, conditions: Aspergillus oryzae (strain ATCC 42149 / RIB 40); pH 7; 25 °C; Urea; Fluorescence; MOPS 30 mM; transition: 2; reversible: Yes; structure 1RN1; whole UniProt chain shown

Row | Variant | ddG of mutation (higher = less stable) | denaturant m value | denaturant midpoint (higher = more stable) | unfolding free energy
6 | N70D | 2 kcal/mol | 1.25 kcal/mol/M | 3.54 M | 4.43 kcal/mol
7 | N70S | 1.9 kcal/mol | 1.22 kcal/mol/M | 3.6 M | 4.39 kcal/mol
8 | N70A | 2 kcal/mol | 1.17 kcal/mol/M | 3.51 M | 4.12 kcal/mol

Same assay, conditions: Aspergillus oryzae (strain ATCC 42149 / RIB 40); pH 7; 50.8 °C; Thermal; CD; MOPS 30 mM; reversible: yes (>95%); structure 1RN1; whole UniProt chain shown

Row | Variant | ddG of mutation (higher = less stable)
9 | N70D | 1.6 kcal/mol
10 | N70S | 1.5 kcal/mol
11 | N70A | 1.6 kcal/mol

Same assay, conditions: Aspergillus oryzae (strain ATCC 42149 / RIB 40); pH 7; Thermal; CD; MOPS 30 mM; reversible: yes (>95%); structure 1RN1; whole UniProt chain shown

Row | Variant | Tm | change of melting temperature, mutant - wild type (higher = more stable) | unfolding enthalpy (van 't Hoff)
12 | N70D | 45.3 °C | -5.5 °C | 84.2 kcal/mol
13 | N70S | 45.8 °C | -5 °C | 89.6 kcal/mol
14 | N70A | 45.6 °C | -5.2 °C | 86.8 kcal/mol

Same assay, conditions: Aspergillus oryzae (strain ATCC 42149 / RIB 40); pH 7; Thermal; CD; MOPS 30 mM; transition: 2; reversible: Yes; structure 1RN1; whole UniProt chain shown

Row | Variant | Tm | change of melting temperature, mutant - wild type (higher = more stable) | unfolding enthalpy (van 't Hoff)
15 | N70S | 45.8 °C | -5 °C | 89.6 kcal/mol
16 | N70A | 45.6 °C | -5.2 °C | 86.8 kcal/mol

Variants of: B2
Conditions: Kitasatospora aureofaciens; pH 2; Thermal; CD; MOPS 30 mM; transition: 2; reversible: Yes; structure 1RGG; whole UniProt chain shown

Row | Variant | Tm | change of melting temperature, mutant - wild type (higher = more stable) | unfolding enthalpy (van 't Hoff)
17 | N39D | 23.3 °C | -4.7 °C | 50.3 kcal/mol

Same assay, conditions: Kitasatospora aureofaciens; pH 7; 48.4 °C; Thermal; CD; MOPS 30 mM; reversible: yes (>95%); structure 1RGG; whole UniProt chain shown

Row | Variant | ddG of mutation (higher = less stable)
18 | N39D | 1.5 kcal/mol
19 | N39A | 2.2 kcal/mol
20 | N39S | 2.3 kcal/mol

Same assay, conditions: Kitasatospora aureofaciens; pH 7; Thermal; CD; MOPS 30 mM; reversible: yes (>95%); structure 1RGG; whole UniProt chain shown

Row | Variant | Tm | change of melting temperature, mutant - wild type (higher = more stable) | unfolding enthalpy (van 't Hoff)
21 | N39D | 43.2 °C | -5.2 °C | 83.5 kcal/mol
22 | N39A | 40.8 °C | -7.6 °C | 70.4 kcal/mol
23 | N39S | 40.4 °C | -8 °C | 73.5 kcal/mol

Same assay, conditions: Kitasatospora aureofaciens; pH 7; Thermal; CD; MOPS 30 mM; transition: 2; reversible: Yes; structure 1RGG; whole UniProt chain shown

Row | Variant | Tm | change of melting temperature, mutant - wild type (higher = more stable) | unfolding enthalpy (van 't Hoff)
24 | N39D | 43.2 °C | -5.2 °C | 83.5 kcal/mol
25 | N39A | 40.8 °C | -7.6 °C | 70.4 kcal/mol
26 | N39S | 40.4 °C | -8 °C | 73.5 kcal/mol
